In patent US20230123041A1 (IMMUNOME, published 2023):

What was measured:
Hu/Cy/Rh ROR1 - His [1] = molecular target: T1, Hu/Cy/Rh ROR1 - His (human/cynomolgus/rhesus (Hu/Cy/Rh), UniProt Q01973 30-403, limits assumed); assay: SPR (Carterra); cell 'Kinetics (KD)' of 4A5 in the row and the column heads of the binning table; no unit is printed on the sheet, the four other KD cells equal the KD (M) values of Table 2 for Hu/Cy/Rh ROR1 - His
T1 construct: Purified His-tagged protein; also called human/cyno/rhesus ROR-1; not shown: His tag

[2] = molecular target: T2, human ROR-1 endogenously expressed on JeKo-1 and MDA-MB-468 cells (human, UniProt Q01973 30-937); assay: flow cytometry, antibody titration on ROR-1 positive JeKo-1 cells, secondary antibody staining, Net MFI [right panel]
T2 construct: whole, on cells; also called ROR-1 receptor; receptor tyrosine kinase like orphan receptor 1
Source text: FIG. 27 illustrates a measurement of cell binding saturation data for the anti-ROR-1 antibodies generated by the methods described herein. […] Cells were washed, stained with secondary antibody and cell binding saturation was detected by flow cytometry and reported as mean fluorescent intensity (MFI).
A cell binding saturation assay was developed to evaluate how well the anti_ROR-1 antibodies developed in Example 28 bound to endogenously expressed extracellular ROR-1 protein on cell lines. […] Briefly, two ROR-1 positive cell lines, JeKo-1 and MDA-MB-468, were incubated in a titration series concentration of each antibody construct. Cells were then washed and subjected to secondary antibody staining and detection by flow cytometry. Mean fluorescence (MFI) was determined by analysis on cytometer software. […] (See FIG. 27).

[3] = molecular target: T2, human ROR-1 endogenously expressed on …; assay: cellular binning by flow cytometry on MDA-MB-468 cells; antibody titrated, stained with labelled secondary antibody, % Top MFI [29C middle panel]
Experimental: (§1) Next, the anti-ROR-1 antibodies were fluorescently labeled with a secondary antibody.
(§2) In Step 2, a fluorescently labeled secondary antibody recognizing the novel antibodies was incubated with the samples.

[4] = molecular target: T2, human ROR-1 endogenously expressed on …; assay: cellular binning by flow cytometry on MDA-MB-468 cells; antibody titrated, stained with labelled secondary antibody, % Top MFI [29D middle panel]
Experimental: as §1, §2

[5] = molecular target: T2, human ROR-1 endogenously expressed on …; assay: cellular binning by flow cytometry on MDA-MB-468 cells; ATX-P-885 titrated first, then a saturating dose of the competitor Dy650-UC961; partial inhibition [29C middle panel]
Experimental: as §1, §2

[6] = molecular target: T2, human ROR-1 endogenously expressed on …; assay: cellular binning by flow cytometry on MDA-MB-468 cells; antibody titrated, stained with labelled secondary antibody, % Top MFI [29C left panel]
Experimental: as §1, §2

[7] = molecular target: T2, human ROR-1 endogenously expressed on …; assay: cellular binning by flow cytometry on MDA-MB-468 cells; antibody titrated, stained with labelled secondary antibody, % Top MFI [29D left panel]
Experimental: as §1, §2

[8] = molecular target: T2, human ROR-1 endogenously expressed on …; assay: cellular binning by flow cytometry on MDA-MB-468 cells; ATX-P-875 titrated first, then a saturating dose of the competitor 4A5-PE [29D left panel]
Experimental: as §1, §2

[9] = molecular target: T2, human ROR-1 endogenously expressed on …; assay: cell-based or functional assay
Hu/Cy/Rh ROR1 - His [10] = molecular target: T1, Hu/Cy/Rh ROR1 - His; assay: SPR, binding to purified His-tagged protein
[11] = molecular target: T2, human ROR-1 endogenously expressed on …; assay: flow cytometry, antibody titration on ROR-1 positive JeKo-1 cells, secondary antibody staining, Net MFI [left panel]

B1: 4A5 (antibody, V domains shown)
VH: EVKLVESGGGLVKPGGSLKLSCAASGFTFSSYAMSWVRQIPEKRLEWVASISRGGTTYYPDSVKGRFTISRDNVRNILYLQMSSLRSEDTAMYYCGRYDYDGYYAMDYWGQGTSVTVSS
VL: DIKMTQSPSSMYASLGERVTITCKASPDINSYLSWFQQKPGKSPKTLIYRANRLVDGVPSRFSGGGSGQDYSLTINSLEYEDMGIYYCLQYDEFPYTFGGGTKLEMK
B1 showed a Kd (Hu/Cy/Rh ROR1 - His [1]) of 2.81 nM.

B2: ATX-P-885 (antibody, human IgG1, kappa, V domains shown)
VH: QVQLQQWGAGLLKPSETLSLTCAVYGGSFSGYYWSWIRQPPGKGLEWIGEINHSGSTNYNPSLKSRVTISVDTSKNQFSLKLSSVTAADTAVYYCAREGVYEDYWGQGTLVTVSS
VL: EIVLTQSPATLSLSPGERATLSCRASQSVSNYLAWYQQKPGQAPRLLIYDAYNRATGIPARFSGSGSGTDFTLTISSLEPEDFAVYYCQQRSNWPLTFGQGTRLEIKR
notes: also called mAb B
With B2 the “EC50 (read off the curve)” value [2] was about 0.3 nM, the “EC50 (read off the curve)” value [3] was about 3 nM and the “EC50 (read off the curve)” value [4] was about 2 nM. The “IC50 (read off the curve)” value [5] was about 3 nM.

B3: ATX-P-875 (antibody, human IgG1, kappa, V domains shown)
VH: not shown
VL: DIQMTQSPSSLSASVGDRVTITCRASQSISSYLNWYQQKPGKAPKLLIYAASSLQSGVPSRFSGSGSGTDFTLTISSLQPEDFATYYCQQYDNLPITFGQGTRLEIKR
notes: also called mAb A
For B3, the “EC50 (read off the curve)” value [6] was about 0.9 nM, the “EC50 (read off the curve)” value [7] was about 0.6 nM and the “IC50 (read off the curve)” value [8] was about 0.7 nM.

B4: UC961 (ATX-P-453) (antibody, V domains shown)
VH: QVQLQESGPGLVKPSQTLSLTCTVSGYAFTAYNIHWVRQAPGQGLEWMGSFDPYDGGSSYNQKFKDRLTISKDTSKNQVVLTMTNMDPVDTATYYCARGWYYFDYWGHGTLVTVSS
VL: DIVMTQTPLSLPVTPGEPASISCRASKSISKYLAWYQQKPGQAPRLLIYSGSTLQSGIPPRFSGSGYGTDFTLTINNIESEDAAYYFCQQHDESPYTFGEGTKVEIK
B4 was tested, and the “percent receptor internalization relative to time zero (flow cytometry of antibody remaining on the surface, JeKo-1 and MDA-MB-468)” value [9] was at least 75%, the Kd (Hu/Cy/Rh ROR1 - His [10]) was 4.69 nM and the koff (Hu/Cy/Rh ROR1 - His [10]) was 0.00591 s⁻¹. For the same binder, the kon (Hu/Cy/Rh ROR1 - His [10]) was 1.26e+06 M⁻¹ s⁻¹, the “EC50 (read off the curve)” value [11] was about 0.02 nM and the “EC50 (read off the curve)” value [2] was about 0.1 nM.
